Results from paper doi:10.1101/2023.04.01.535208.
One block for each substance: values may come before it.

Tests used:
[1] = target: chimeric V2R harboring the carboxy-terminal tail of the β2-adrenergic receptor (V2β2AR)
[2] = target: vasopressin type 2 receptor (V2R) (UniProt P30518)
[3] = target: vasopressin type 2 receptor (V2R) (UniProt P30518); remark: listed apart in the source

- potency of AVP for recruitment of Rluc-mGsq to early endosomes (EbBRET with rGFP-Rab5), cells expressing V2β2AR [1]: -7.82 LogEC50
- potency of AVP for recruitment of Rluc-mGsq to the plasma membrane (EbBRET with rGFP-CAAX), cells expressing V2β2AR [1]: -7.97 LogEC50
- transduction coefficient (operational model) of AVP for recruitment of Rluc-mGs to the plasma membrane, cells expressing V2β2AR [1]: 8.04 Logτ/Ka
- transduction coefficient (operational model) of AVP for recruitment of Rluc-mGsq to early endosomes, cells expressing V2β2AR [1]: 7.91 Logτ/Ka
Substance: arginine vasopressin (AVP) (peptide)

- AVP-induced maximal efficacy of the AVP dose-response of Rluc-mGs recruitment to early endosomes (EbBRET with rGFP-Rab5), parental HEK293 cells, 45 minutes [2]: 0.18 ΔEbBRET
- AVP-induced maximal efficacy of the AVP dose-response of Rluc-mGs recruitment to early endosomes (EbBRET with rGFP-Rab5), Δβarr1/2 HEK293 cells, 45 minutes [2]: 0.074 ΔEbBRET
- AVP-induced maximal efficacy of the AVP dose-response of Rluc-mGs recruitment to the plasma membrane (EbBRET with rGFP-CAAX), parental HEK293 cells, 10 minutes [2]: 0.324 ΔEbBRET
- AVP-induced maximal efficacy of the AVP dose-response of Rluc-mGs recruitment to the plasma membrane (EbBRET with rGFP-CAAX), Δβarr1/2 HEK293 cells, 10 minutes [2]: 0.376 ΔEbBRET
- AVP-mediated maximal efficacy of the AVP dose-response of Rluc-mGs recruitment to early endosomes (EbBRET with rGFP-Rab5), cells expressing V2β2AR [1]: 0.15 ΔEbBRET
- AVP-mediated maximal efficacy of the AVP dose-response of Rluc-mGs recruitment to the plasma membrane (EbBRET with rGFP-CAAX), cells expressing V2β2AR [1]: 0.392 ΔEbBRET
- AVP-mediated maximal efficacy of the AVP dose-response of Rluc-mGs recruitment to early endosomes (EbBRET with rGFP-Rab5), cells expressing V2R [3]: 0.167 ΔEbBRET
- AVP-mediated maximal efficacy of the AVP dose-response of Rluc-mGs recruitment to the plasma membrane (EbBRET with rGFP-CAAX), cells expressing V2R [3]: 0.3 ΔEbBRET
Substance: mini G protein mGs

- AVP-induced maximal efficacy of the AVP dose-response of Rluc-mGsq recruitment to early endosomes (EbBRET with rGFP-Rab5), parental HEK293 cells, 45 minutes [2]: 0.05 ΔEbBRET
- AVP-induced maximal efficacy of the AVP dose-response of Rluc-mGsq recruitment to early endosomes (EbBRET with rGFP-Rab5), Δβarr1/2 HEK293 cells, 45 minutes [2]: 0.024 ΔEbBRET
- AVP-induced maximal efficacy of the AVP dose-response of Rluc-mGsq recruitment to the plasma membrane (EbBRET with rGFP-CAAX), parental HEK293 cells, 10 minutes [2]: 0.168 ΔEbBRET
- AVP-induced maximal efficacy of the AVP dose-response of Rluc-mGsq recruitment to the plasma membrane (EbBRET with rGFP-CAAX), Δβarr1/2 HEK293 cells, 10 minutes [2]: 0.18 ΔEbBRET
- AVP-mediated maximal efficacy of the AVP dose-response of Rluc-mGsq recruitment to early endosomes (EbBRET with rGFP-Rab5), cells expressing V2β2AR [1]: 0.061 ΔEbBRET
- AVP-mediated maximal efficacy of the AVP dose-response of Rluc-mGsq recruitment to the plasma membrane (EbBRET with rGFP-CAAX), cells expressing V2β2AR [1]: 0.183 ΔEbBRET
- AVP-mediated maximal efficacy of the AVP dose-response of Rluc-mGsq recruitment to early endosomes (EbBRET with rGFP-Rab5), cells expressing V2R [3]: 0.05 ΔEbBRET
- AVP-mediated maximal efficacy of the AVP dose-response of Rluc-mGsq recruitment to the plasma membrane (EbBRET with rGFP-CAAX), cells expressing V2R [3]: 0.161 ΔEbBRET
Substance: mini G protein mGsq
